The record followed here is patent US20050100989A1 (MERCK SERONO, published 2005).

Experiment [1] deals with T1, human FSH receptor (human, UniProt P23945 18-695).
T1 sequence (looked up): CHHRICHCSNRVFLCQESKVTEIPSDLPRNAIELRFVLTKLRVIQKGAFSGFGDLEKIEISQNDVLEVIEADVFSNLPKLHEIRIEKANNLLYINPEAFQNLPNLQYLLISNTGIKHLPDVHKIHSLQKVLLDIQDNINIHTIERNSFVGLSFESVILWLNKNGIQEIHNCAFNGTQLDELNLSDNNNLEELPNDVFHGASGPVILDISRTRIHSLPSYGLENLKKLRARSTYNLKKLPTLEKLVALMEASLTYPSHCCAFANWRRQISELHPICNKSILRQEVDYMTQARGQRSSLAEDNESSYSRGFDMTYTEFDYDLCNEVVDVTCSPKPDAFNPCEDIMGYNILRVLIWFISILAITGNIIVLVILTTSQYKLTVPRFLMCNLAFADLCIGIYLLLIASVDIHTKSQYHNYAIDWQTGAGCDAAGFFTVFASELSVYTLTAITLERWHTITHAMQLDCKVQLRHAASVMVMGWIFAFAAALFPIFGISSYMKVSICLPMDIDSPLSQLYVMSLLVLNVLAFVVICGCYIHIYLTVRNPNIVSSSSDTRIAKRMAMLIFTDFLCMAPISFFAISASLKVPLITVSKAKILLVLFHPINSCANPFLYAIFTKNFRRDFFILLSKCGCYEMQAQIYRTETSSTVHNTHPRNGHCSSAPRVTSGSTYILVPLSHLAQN
The experiment is described as follows: cell-based or functional assay.

For experiment [2], the target named is T1, human FSH receptor. The experiment in a line: competition with 125I radiolabelled FSH on membrane preparations with human FSH receptor.
In experiment [3] the target is T1, human FSH receptor. The experiment in a line: cell-based or functional assay. The source holds these as a separate data set.
In experiment [4] the target is T1, human FSH receptor. The experiment in a line: competition with 0.4 nM 125I-FSH on CHO membranes bearing human FSHR, filtration, single site model.
Protocol: Large batches of CHO cells line which recombinantly express human FSH receptor or human LH receptor were grown and disrupted by nitrogen cavitation (20 min equilibration to 900 psi, followed by rapid pressure release) in 0.025 M Tris pH 7.4 containing 0.25 M sucrose, 10 mM MgCl₂, 1 mM EDTA and one part per thousand Sigma Protease Inhibitor cocktail (p8350). Following preliminary clarification (10 min×1000×g at 4° C.) the membranes fraction was pelletted (60 min×100,000×g×4° C.) by ultracentrifugation. The membranes fraction was resuspended in binding buffer (0.01 M Tris pH 7.4 containing 5 mM MgCl₂), protein concentration estimated by Bradford (BioRad) protein assay and stored frozen at −80° C. for future use. Typically 15 μg of membrane protein appropriately bearing FSHR or LHR was analyzed, per well, in competition assays.
Radioligand binding was evaluated in 96 well plates, 100 μl/sample well. The assay buffer was 0.01 M Tris pH 7.4 containing 5 mM MgCl₂ and 0.1% BSA and 0.3 nM ¹²⁵I-hCG (for LHR) or 0.4 nM ¹²⁵I-FSH (for FSHR). […] Nonspecific binding was determined in the presence of 500 nM unlabeled hCG or FSH. Binding was allowed to equilibrate for 90 min at 37° C. with shaking. […] Bound radioactivity was measured in an HP Cobra II gamma counter using a pre-programmed detection window specific for ¹²⁵I emission. Data were analyzed using a single site model and Graph Pad Prizm software.

Where “and” joins values, the source holds several entries; their conditions need not be identical. Identical values can stand only once.

B1: FSH single β-subunit mutant β E55N/V57T (mutant β-subunit expressed together with the complementary wild type α-subunit) (ligand)
chain 1: not shown
chain 2: NSCELTNITIAIEKEECRFCISINTTWCAGYCYTRDLVYKDPARPKIQKTCTFKNLTYETVRVPGCAHHADSLYTYPVATQCHCGKCDSDSTDCTVRGLGPSYCSFGEMKE
modifications: N-linked glycosylation; extra consensus site at N55 (hyperglycosylated by shift of apparent molecular weight); N-linked glycosylation (glycoprotein made in CHO cells)
notes: also called βE55/V57T
Take B1: in experiment [1], the “EC50 (FSHR-coupled cAMP production)” value was 0.039 nM. Moreover, in experiment [2], affinity was put at a Ki of 0.86 nM.

B2: GM-1 (FSH double glycosylation mutant: α-subunit H83N and β-subunit E55N/V57T) (ligand)
chain 1: not shown
chain 2: NSCELTNITIAIEKEECRFCISINTTWCAGYCYTRDLVYKDPARPKIQKTCTFKNLTYETVRVPGCAHHADSLYTYPVATQCHCGKCDSDSTDCTVRGLGPSYCSFGEMKE
modifications: N-linked glycosylation (glycoprotein made in CHO-Dukx cells)
notes: Heterodimer; also called GM-1 Lot 1; GM-1 Lot 2
Consider B2, for which the “FSHR EC50 (cAMP production)” value in experiment [3] is 0.0612 nM and 0.0209 nM. The Ki (in general, the equilibrium dissociation constant of an inhibitor or competing ligand from its target) in experiment [4] was 1.9 nM and 2.3 nM.
